Test results: article PMC3377065 (EMBO Molecular Medicine, 2011)
Several values for one entry are separate records, joined by “and”; a condition that tells them apart may be missing. Equal values may be shown once.

B1: human CMG2 C315A, V5-tagged (receptor)
chain: not shown
B2: human CMG2 C39A, V5-tagged (receptor)
chain: not shown
B3: human CMG2 C230A–C315A double mutant, V5-tagged (receptor)
chain: not shown
B4: human CMG2 C230A, V5-tagged (receptor)
chain: not shown
B5: human CMG2 C255A, V5-tagged (receptor)
chain: not shown
B6: human CMG2 C218A, V5-tagged (receptor)
chain: not shown
B7: human CMG2 C279A, V5-tagged (receptor)
chain: not shown

Target: the molecule itself
Assay: non-reducing SDS-PAGE and Western blot

| Protein | stoichiometry N |
| --- | --- |
| B1 | 3 and 4 |
| B2 | 2 |
| B3 | 2 |
| B4 | 3 and 4 |
| B5 | 3 and 4 |
| B6 | 2 |
| B7 | 3 and 4 |
